Test results published in patent publication US20200368279.

Legend:
Experiment in all cases: cell_activity
SBS75606 ZFN = conditions: pair with SBS75609, K562, 15 ug/mL mRNA; 70.1 at 3.75 ug/mL
SBS75714 ZFN = conditions: pair with SBS75715, K562, 15 ug/mL mRNA; 84.0 at 3.75 ug/mL
SBS75895 ZFN = conditions: pair with SBS75893, K562, 15 ug/mL mRNA; 76.6 at 3.75 ug/mL
SBS75609 ZFN = conditions: pair with SBS75606, K562, 15 ug/mL mRNA; 70.1 at 3.75 ug/mL
SBS75592 ZFN = conditions: pair with SBS75591, K562, 15 ug/mL mRNA; 80.0 at 3.75 ug/mL
SBS75715 ZFN = conditions: pair with SBS75714, K562, 15 ug/mL mRNA; 84.0 at 3.75 ug/mL
SBS75893 ZFN = conditions: pair with SBS75895, K562, 15 ug/mL mRNA; 76.6 at 3.75 ug/mL
SBS75591 ZFN = conditions: pair with SBS75592, K562, 15 ug/mL mRNA; 80.0 at 3.75 ug/mL

AAGGAGGTGCTCCTGGAATTACTTAGCA (double strand) [SBS75606 target]
activity (SBS75606 ZFN): 91.4 % indels

AGGGATGGGATGACTTGGCTTTAGGTCA (double strand) [SBS75714 target]
activity (SBS75714 ZFN): 90.7 % indels

AGGTTGGGAGTGGGGTCTTGTTCAGGGC (double strand) [SBS75895 target]
activity (SBS75895 ZFN): 91.3 % indels

CTCCCCTGACCAAGGAAAATCGGGGTGG (double strand) [SBS75609 target]
activity (SBS75609 ZFN): 91.4 % indels

GCTAAGTAATTCCAGGAGCACCTCCTTT (double strand) [SBS75592 target]
activity (SBS75592 ZFN): 91.2 % indels

GGACTCAGGTGGGGGGTCTAGGGGTGAG (double strand) [SBS75715 target]
activity (SBS75715 ZFN): 90.7 % indels

GGGCTAGGGCTGAAGTGAGGTGAAAGGT (double strand) [SBS75893 target]
activity (SBS75893 ZFN): 91.3 % indels

TCGGCCATCAGAAGGGAGGGACCCTGCT (double strand) [SBS75591 target]
activity (SBS75591 ZFN): 91.2 % indels
